# Tested on: GRE (glucocorticoid response element)-Luciferase reporter
# Experiment: GRE-luciferase reporter assay of transactivation potential of reconstructed GR alleles co-transfected into HEK 293 cells
# Type: cell-based, human
# Source text: An exemplary assay for determining the transactivation potential of a GR polypeptide is described below. The GR nucleic acid sequence encoding the GR polypeptide of interest can be cloned into a first vector (e.g., pcDNA4, Invitrogen, Carlsbad, Calif.). A second vector can be constructed to contain a reporter gene, e.g., the luciferase gene, under the control of a GRE. These two vectors can be co-transfected into a cell, e.g., a human embryonic kidney cell (HEK 293). Skilled practitioners will recognize that a number of cell types can be used to test whether a GR polypeptide is functional. The cell will then express the GR polypeptide encoded by the GR nucleic acid sequence on the first vector. […] The product of the reporter gene, e.g., luciferase, can then be detected and quantified using conventional methods. For example, when a luciferin substrate is added, luciferase will produce luminescence that can be detected and quantified. […]
# The reconstructed GR allele expression plasmids described above were co-transfected with a GRE (glucocorticoid response element)-Luciferase reporter plasmid (Stratagene) using Fugene HD/6 (Roche) into HEK (human embryonic kidney) 293 cells, grown in Dulbecco's Modified Eagle Medium with 10% fetal bovine serum and 1% Penicillin/Streptomycin (Invitrogen.). […] The differences in luminescence were graphed and analyzed.
Molecule,"luciferase activity (transactivation potential), in words (FIG. 5)","fold change in luciferase activity relative to the luciferase activity induced by the reference human GR polypeptide (medium with 10% fetal bovine serum, FIG. 5, experiment repeated six times)"
"allele 66-63: Full-length human GR with substitutions N72D, V321A, R460K, F749G (protein, UniProt P04150 1-777, looked up, variant N72D V321A R460K F749G) Glucocorticoid receptor: MDSKESLTPGREENPSSVLAQERGDVMDFYKTLRGGATVKVSASSPSLAVASQSDSKQRRLLVDFPKGSVSDAQQPDLSKAVSLSMGLYMGETETKVMGNDLGFPQQGQISLSSGETDLKLLEESIANLNRSTSVPENPKSSASTAVSAAPTEKEFPKTHSDVSSEQQHLKGQTGTNGGNVKLYTTDQSTFDILQDLEFSSGSPGKETNESPWRSDLLIDENCLLSPLAGEDDSFLLEGNSNEDCKPLILPDTKPKIKDNGDLVLSSPSNVTLPQVKTEKEDFIELCTPGVIKQEKLGTVYCQASFPGANIIGNKMSAISAHGVSTSGGQMYHYDMNTASLSQQQDQKPIFNVIPPIPVGSENWNRCQGSGDDNLTSLGTLNFPGRTVFSNGYSSPSMRPDVSSPPSSSSTATTGPPPKLCLVCSDEASGCHYGVLTCGSCKVFFKRAVEGQHNYLCAGKNDCIIDKIRRKNCPACRYRKCLQAGMNLEARKTKKKIKGIQQATTGVSQETSENPGNKTIVPATLPQLTPTLVSLLEVIEPEVLYAGYDSSVPDSTWRIMTTLNMLGGRQVIAAVKWAKAIPGFRNLHLDDQMTLLQYSWMFLMAFALGWRSYRQSSANLLCFAPDLIINEQRMTLPCMYDQCKHMLYVSSELHRLQVSYEEYLCMKTLLLLSSVPKDGLKSQELFDEIRMTYIKELGKAIVKREGNSSQNWQRFYQLTKLLDSMHEVVENLLNYCFQTFLDKTMSIEGPEMLAEIITNQIPKYSNGNIKKLLFHQK",very low level,–
"allele 66-62: Full-length human GR with substitutions N72D, V321A, N766S (protein, UniProt P04150 1-777, looked up, variant N72D V321A N766S) Glucocorticoid receptor: MDSKESLTPGREENPSSVLAQERGDVMDFYKTLRGGATVKVSASSPSLAVASQSDSKQRRLLVDFPKGSVSDAQQPDLSKAVSLSMGLYMGETETKVMGNDLGFPQQGQISLSSGETDLKLLEESIANLNRSTSVPENPKSSASTAVSAAPTEKEFPKTHSDVSSEQQHLKGQTGTNGGNVKLYTTDQSTFDILQDLEFSSGSPGKETNESPWRSDLLIDENCLLSPLAGEDDSFLLEGNSNEDCKPLILPDTKPKIKDNGDLVLSSPSNVTLPQVKTEKEDFIELCTPGVIKQEKLGTVYCQASFPGANIIGNKMSAISAHGVSTSGGQMYHYDMNTASLSQQQDQKPIFNVIPPIPVGSENWNRCQGSGDDNLTSLGTLNFPGRTVFSNGYSSPSMRPDVSSPPSSSSTATTGPPPKLCLVCSDEASGCHYGVLTCGSCKVFFKRAVEGQHNYLCAGRNDCIIDKIRRKNCPACRYRKCLQAGMNLEARKTKKKIKGIQQATTGVSQETSENPGNKTIVPATLPQLTPTLVSLLEVIEPEVLYAGYDSSVPDSTWRIMTTLNMLGGRQVIAAVKWAKAIPGFRNLHLDDQMTLLQYSWMFLMAFALGWRSYRQSSANLLCFAPDLIINEQRMTLPCMYDQCKHMLYVSSELHRLQVSYEEYLCMKTLLLLSSVPKDGLKSQELFDEIRMTYIKELGKAIVKREGNSSQNWQRFYQLTKLLDSMHEVVENLLNYCFQTFLDKTMSIEFPEMLAEIITNQIPKYSSGNIKKLLFHQK",–,5.5 fold

# — patent US20120040938A1, “GLUCOCORTICOID RECEPTOR ALLELES AND USES THEREOF” (SHRINERS HOSPITAL FOR CHILDREN, priority 2009, published 2012)
